Data published in patent US8114832 (UMC UTRECHT HOLDING B V, dated 2012).
Ends that are not written are not given here.

T1: recombinant human β2-glycoprotein I (human, UniProt P02749 20-345)
T1 construct: Said to hold more cross-β structure conformation than plasma β2GPI; also called recombinant β2GPI; rec. β2GPI
T1 sequence (looked up): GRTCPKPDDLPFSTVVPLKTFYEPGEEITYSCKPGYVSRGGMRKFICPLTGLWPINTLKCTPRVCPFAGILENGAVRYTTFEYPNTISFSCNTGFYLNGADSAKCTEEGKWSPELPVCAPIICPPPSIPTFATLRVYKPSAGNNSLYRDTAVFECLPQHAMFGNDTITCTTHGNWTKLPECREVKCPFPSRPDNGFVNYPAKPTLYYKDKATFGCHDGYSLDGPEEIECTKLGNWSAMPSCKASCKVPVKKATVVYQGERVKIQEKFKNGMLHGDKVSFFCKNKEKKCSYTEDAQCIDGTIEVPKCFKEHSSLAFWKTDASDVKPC

B1: chemically synthesized tPA F domain (other)
chain: SYQVICRDEKTQMIYQQHQSWLRPVLRSNRVEYCWCNSGRAQCHSVPVKSK
modifications: cysteine pairing not given here; also: C-terminal lysine acetylated or biotinylated
notes: domain: F domain; Made from two peptides by native chemical ligation
B2: chemically synthesized HGFA F domain (other, UniProt Q04756 200-240, looked up)
chain: EKCFDETRYEYLEGGDRWARVRQGHVEQCECFGGRTWCEGT
modifications: cysteine pairing not given here; also: acetylated lysine, position not given here
notes: as for B1

Key:
[1] = target: T1, recombinant human β2-glycoprotein I; assay: SPR (Biacore), chemically synthesized tPA F immobilized (395 RU)
Method: Then, the proteins were covalently coupled to the activated dextran surface. Remaining activated groups in each of the four flow channels were blocked by injection of 35 μl of 1 M ethanolamine hydrochloride pH 8.5. EDC, NHS and ethanolamine hydrochloride were obtained from Biacore. […] The running buffer during immobilization was 10 mM HEPES pH 7.4, 140 mM NaCl. Buffers were filtrated on a 0.22 μm filter (white GSWP, 47 mm, Millipore) and degassed at room temperature.

[2] = target: T1, recombinant human β2-glycoprotein I; assay: SPR (Biacore), chemically synthesized HGFA F immobilized (190 RU)
Method: The running buffer during immobilization was 10 mM HEPES pH 7.4, 140 mM NaCl. Buffers were filtrated on a 0.22 μm filter (white GSWP, 47 mm, Millipore) and degassed at room temperature.
Regeneration buffer was running buffer supplemented with 1 M NaCl.

| Binder | binding result [1] | binding result [2] |
| --- | --- | --- |
| B1 | no binding (tested: 0-300 mM (so in the source)) | – |
| B2 | – | no binding (tested: 0-300 mM (so in the source)) |
